Experimental data as given in patent publication US20140271701A1.

Biological target: serum antibodies (IgG) of Sardinian T1D patients, Example 1 (n=34; Ab+ sera) (human)
Assay: competition ELISA on MAP3865c125-133-coated plates, sera pre-adsorbed with saturating peptide

MIAVALAGL [MAP3865c125-133 peptide (…)] was tested, and the percent inhibition was 57 to 89%.
